# “And” between values parts separate entries of the source, which are not always exact repeats. Equal entries are not always repeated. Where two headings read alike, the source gives them in different places. Positions of bridges follow the written chain, without caps; N, C: chain ends.
# Legend:
# [1] = target: T1, platelet derived growth factor PDGF-BB (UniProt P01127 82-190); assay: cell-based or functional assay
# [2] = target: T2, vascular endothelial growth factor (VEGF) (UniProt P15692-4 27-191, limits assumed); assay: cell-based or functional assay
# T2 sequence (P15692 other isoform, or with tags, fused parts or gaps limits assumed): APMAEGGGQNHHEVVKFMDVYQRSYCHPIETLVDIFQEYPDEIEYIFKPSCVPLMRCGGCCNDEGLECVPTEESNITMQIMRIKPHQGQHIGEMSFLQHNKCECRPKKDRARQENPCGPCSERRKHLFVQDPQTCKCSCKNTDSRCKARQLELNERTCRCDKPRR
# [3] = target: insulin-like growth factor-1 (IGF-1) (UniProt P05019); assay: cell-based or functional assay
# insulin-like growth factor-1 (IGF-1) (UniProt P05019), sequence (P05019 49-118 limits assumed): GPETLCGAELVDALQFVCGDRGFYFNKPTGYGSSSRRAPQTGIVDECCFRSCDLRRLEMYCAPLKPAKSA
# [4] = target: acidic fibroblast growth factor (aFGF) (UniProt P05230 16-155, limits assumed); assay: cell-based or functional assay
# acidic fibroblast growth factor (aFGF), sequence (P05230 16-155 limits assumed): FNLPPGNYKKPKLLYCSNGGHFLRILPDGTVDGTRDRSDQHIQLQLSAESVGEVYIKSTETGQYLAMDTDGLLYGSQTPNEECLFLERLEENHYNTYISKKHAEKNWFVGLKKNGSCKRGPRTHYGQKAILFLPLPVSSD
# [5] = target: T1, platelet derived growth factor PDGF-BB; assay: inhibition of [125I]-PDGF-BB binding to NIH 3T3 cells (PDGFR), 4 °C
# [6] = target: T2, vascular endothelial growth factor …; assay: inhibition of [125I]-VEGF binding to NIH 3T3 cells overexpressing Flk-1, GFB-111 10 µM
# [7] = target: T2, vascular endothelial growth factor …; assay: cell-based or functional assay; remark: listed apart in the source
# [8] = target: T2, vascular endothelial growth factor …; assay: cell-based or functional assay; remark: listed apart in the source
# [9] = target: T1, platelet derived growth factor PDGF-BB; assay: cell-based or functional assay; remark: listed apart in the source
# [10] = target: insulin-like growth factor-1 (IGF-1) (UniProt P05019 49-118); assay: cell-based or functional assay
# insulin-like growth factor-1 (IGF-1) (UniProt P05019 49-118), sequence (P05019 49-118 limits assumed): as the sequence (P05019 49-118 limits assumed) above
# [11] = target: T1, platelet derived growth factor PDGF-BB; assay: cell-based or functional assay; remark: listed apart in the source
# T1 sequence (P01127 82-190 limits assumed): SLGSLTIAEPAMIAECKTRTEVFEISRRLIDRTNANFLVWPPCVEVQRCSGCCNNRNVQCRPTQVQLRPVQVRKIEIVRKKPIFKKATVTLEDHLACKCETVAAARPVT
Binder,"IC50, PDGFR-Y-P [1] [µM]","IC50, p42/Erk2 [1] [µM]","(IC50) Inhibition, p44 [4]","IC50, Flk-1-Y-P [8] [µM]","IC50, p42 [8]","IC50, p44 [8]","(IC50) Inhibition, p42 [4]","IC50, PDGFR-Y-P [9] [µM]","IC50, p42/Erk2 [9] [µM]","% Inhibition at 100 µM, IGF1R-Y-P [10] [%]","% Inhibition at 100 µM, p42 [10] [%]","% Inhibition at 100 µM, p44 [10] [%]",further results
"GDGY (designed binder, linker N-C via 3‑aminomethyl‑5‑aminobenzamide; also: four loops on But-Calix calix[4]arene scaffold) [GFB-111]",0.25,2.6,68 µM per head; likely % and 51.8 µM per head; likely %,–,–,–,–,–,–,–,–,–,"IC50, PDGF-BB stimulated DNA synthesis ([3H]-thymidine incorporation) [1]: 6.5 µM; IC50, PDGF-dependent activation of Erk1 [1]: 0.8 µM; IC50, PDGF-dependent activation of Erk2 [1]: 1.2 µM; PDGF-BB stimulation of receptor tyrosine phosphorylation, complete block [1]: 3 µM; IC50, Flk-1-Y-P [2]: 5 µM; IC50, VEGF-stimulated Flk-1 tyrosine phosphorylation and MAPK activation [2]: 10 µM; IC50, p42 [2]: 10 µM; IC50, p44 [2]: 10 µM; % Inhibition at 100 µM, IGF1R-Y-P [3]: -12.4%; % Inhibition at 100 µM, p42 [3]: -18.4%; % Inhibition at 100 µM, p44 [3]: 10.7%; IC50 [5]: 250 nM; inhibition of [125I]-VEGF binding at 10 µM GFB-111 [6]: 50%"
"GKGK (designed binder, linker N-C via 3‑aminomethyl‑5‑aminobenzamide; also: four loops on But-Calix scaffold) [GFB-116]",40,28,97.5 µM per head; likely % and 97.2 µM per head; likely % and 116 µM per head; likely % and 99.9 µM per head; likely %,0.3,5 µM,5 µM,99.2 µM per head; likely % and 99.6 µM per head; likely % and 102 µM per head; likely % and 99.7 µM per head; likely %,–,–,–,–,–,"IC50, VEGF-stimulated flk-1 tyrosine phosphorylation [7]: 3 mM; (IC50) Inhibition, p42 (mean) [4]: 100 µM per head; likely %; (IC50) Inhibition, p44 (mean) [4]: 103 µM per head; likely %"
"GDSD (designed binder, linker N-C via 3‑aminomethyl‑5‑aminobenzamide; also: four loops on But-Calix calix[4]arene scaffold) [GFB-113]",–,–,64.3 µM per head; likely %,< 10,10 µM,10 µM,53.6 µM per head; likely %,2.8,30,-18.9,-31.4,18.7,–
"GKGF (designed binder, linker N-C via 3‑aminomethyl‑5‑aminobenzamide; also: four loops on But-Calix scaffold) [GFB-115]",–,–,-23.9 µM per head; likely %,–,5 µM and 10 µM,5 µM and 10 µM,-21 µM per head; likely %,> 50,> 50,-38.3,-12.4,51.9,"IC50, PDGF-BB-stimulated PDGF receptor tyrosine autophosphorylation [11]: 50 µM"

# Source: patent US20060084596A1 (UNIVERSITY OF SOUTH FLORIDA, published 2006)
